Data as given in patent US20220040297A1 (Chugai, published 2022).

T1: biotin-labeled human CD154 (human, UniProt P29965 113-261, limits assumed, biotin-labeled)
T1 construct: also called biotinylated human CD154
T1 sequence (looked up): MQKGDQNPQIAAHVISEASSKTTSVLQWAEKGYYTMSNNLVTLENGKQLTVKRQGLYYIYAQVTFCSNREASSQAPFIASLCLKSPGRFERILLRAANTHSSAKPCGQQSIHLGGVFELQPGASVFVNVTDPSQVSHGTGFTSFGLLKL


Assays:
[1] = target: T1, biotin-labeled human CD154; experiment: ECL competition: biotinylated CD154, CD3ε homodimer as competitor [2]
Description: (§1) Next, each obtained IgG was evaluated for its binding to CD3 and human CD154 at the same time by the competition method (electrochemiluminescence method (ECL method)).
(§2) A TBST solution containing 0.5% BSA (referred to as a blocking solution; the TBST solution was TBS (manufactured by Takara Bio Inc.) supplemented with 0.1% Tween 20) was added at 150 μL/well to streptavidin plate (MSD K.K.), and the plate was incubated at room temperature for 1 hour or longer. After removal of the blocking solution, each well was washed three times with 250 μL of a TBST solution. The antibody-antigen complex solution was added thereto at 50 L/well, and the plate was incubated at room temperature for 1 hour so that the biotinylated antigen-antibody-detection sulfo-tag antibody complex solution bound via the biotinylated antigen to the streptavidin plate. After removal of the antibody-antigen complex solution, each well was washed three times with a TBST solution, and a solution of 4× READ buffer (MSD K.K.) diluted 2-fold with water was added thereto at 150 μL/well, followed by the detection of the luminescence signal of the sulfo-tag using Sector Imager 2400 (MSD K.K.).

[2] = target: T1, biotin-labeled human CD154; experiment: ECL competition: biotinylated CD154, CD3ε homodimer as competitor [1]
Description: as §1, §2

| Relative ECL reaction (to no antigen coating), CD3ε[+] [1] | Relative ECL reaction (to no antigen coating), CD3ε[+] [2] | Binder |
| --- | --- | --- |
| 10 |  | 154R5A02#1 (antibody, human IgG1, kappa, L234A L235A, N297A, One-arm antibody) heavy: QVQLVESGGGLVQPGRSLRLSCAASGFTFSNAWMHWVRQAPGKGLEWVAQIKDRGNNYNTYYAPSVKGRFTISRDDSKNSIYLQMNSLKTEDTAVYYCRYVHYGSYFFSGSSFGVDIWGQGTTVTVSSASTKGPSVFPLAPSSKSTSGGTAALGCLVKDYFPEPVTVSWNSGALTSGVHTFPAVLQSSGLYSLSSVVTVPSSSLGTQTYICNVNHKPSNTKVDKKVEPKSCDKTHTCPPCPAPEAAGGPSVFLFPPKPKDTLMISRTPEVTCVVVDVSHEDPEVKFNWYVDGVEVHNAKTKPREEQYASTYRVVSVLTVLHQDWLNGKEYKCKVSNKALPAPIEKTISKAKGQPREPQVYTLPPSRCELTKNQVSLSCAVKGFYPSDIAVEWESNGQPENNYKTTPPVLDSDGSFFLVSKLTVDKSRWQQGNVFSCSVMHEALHNHYTQKSLSLSPDYKDDDDK EPKSSDKTHTCPPCPAPELLGGPSVFLFPPKPKDTLMISRTPEVTCVVVDVSHEDPEVKFNWYVDGVEVHNAKTKPREEQYNSTYRVVSVLTVLHQDWLNGKEYKCKVSNKALPAPIEKTISKAKGQPREPQVCTLPPSRDELTKNQVSLWCLVKGFYPSDIAVEWESNGQPENNYKTTPPVLDSDGSFFLYSKLTVDKSRWQQGNVFSCSVMHEALHNRYTQKSLSLSP light: DIVMTQSPLSLPVTPGEPASISCRSSQSLVHSNRNTYLHWYQQKPGQAPRLLIYKVSNRFSGVPDRFSGSGSGTDFTLKISRVEAEDVGVYYCGQGTQVPYTFGQGTKLEIKRTVAAPSVFIFPPSDEQLKSGTASVVCLLNNFYPREAKVQWKVDNALQSGNSQESVTEQDSKDSTYSLSSTLTLSKADYEKHKVYACEVTHQGLSSPVTKSFNRGEC |
|  | 18 | 154R4B03#1 (antibody, human IgG1, kappa, L234A L235A, N297A, One-arm antibody) heavy: QVQLVESGGGLVQPGRSLRLSCAASGFTFSNAWMHWVRQAPGKGLEWVAQIKDKQSQYANYYAPSVKGRFTISRDDSKNSIYLQMNSLKTEDTAVYYCRYVHYQSTSYSFYQGGVDAWGQGTTVTVSSASTKGPSVFPLAPSSKSTSGGTAALGCLVKDYFPEPVTVSWNSGALTSGVHTFPAVLQSSGLYSLSSVVTVPSSSLGTQTYICNVNHKPSNTKVDKKVEPKSCDKTHTCPPCPAPEAAGGPSVFLFPPKPKDTLMISRTPEVTCVVVDVSHEDPEVKFNWYVDGVEVHNAKTKPREEQYASTYRVVSVLTVLHQDWLNGKEYKCKVSNKALPAPIEKTISKAKGQPREPQVYTLPPSRCELTKNQVSLSCAVKGFYPSDIAVEWESNGQPENNYKTTPPVLDSDGSFFLVSKLTVDKSRWQQGNVFSCSVMHEALHNHYTQKSLSLSPDYKDDDDK EPKSSDKTHTCPPCPAPELLGGPSVFLFPPKPKDTLMISRTPEVTCVVVDVSHEDPEVKFNWYVDGVEVHNAKTKPREEQYNSTYRVVSVLTVLHQDWLNGKEYKCKVSNKALPAPIEKTISKAKGQPREPQVCTLPPSRDELTKNQVSLWCLVKGFYPSDIAVEWESNGQPENNYKTTPPVLDSDGSFFLYSKLTVDKSRWQQGNVFSCSVMHEALHNRYTQKSLSLSP light: DIVMTQSPLSLPVTPGEPASISCRSSQSLVHSNRNTYLHWYQQKPGQAPRLLIYKVSNRFSGVPDRFSGSGSGTDFTLKISRVEAEDVGVYYCGQGTQVPYTFGQGTKLEIKRTVAAPSVFIFPPSDEQLKSGTASVVCLLNNFYPREAKVQWKVDNALQSGNSQESVTEQDSKDSTYSLSSTLTLSKADYEKHKVYACEVTHQGLSSPVTKSFNRGEC |
|  | 20 | 154R4B03#4 (antibody, human IgG1, kappa, L234A L235A, N297A, One-arm antibody) heavy: QVQLVESGGGLVQPGRSLRLSCAASGFTFSNAWMHWVRQAPGKGLEWVAQIKDKQSQYANYYAPSVKGRFTISRDDSKSSIYLQMNSLKTEDTAVYYCRYVHYQSTSYSFYQGGVDAWGQGTTVTVSSASTKGPSVFPLAPSSKSTSGGTAALGCLVKDYFPEPVTVSWNSGALTSGVHTFPAVLQSSGLYSLSSVVTVPSSSLGTQTYICNVNHKPSNTKVDKKVEPKSCDKTHTCPPCPAPEAAGGPSVFLFPPKPKDTLMISRTPEVTCVVVDVSHEDPEVKFNWYVDGVEVHNAKTKPREEQYASTYRVVSVLTVLHQDWLNGKEYKCKVSNKALPAPIEKTISKAKGQPREPQVYTLPPSRCELTKNQVSLSCAVKGFYPSDIAVEWESNGQPENNYKTTPPVLDSDGSFFLVSKLTVDKSRWQQGNVFSCSVMHEALHNHYTQKSLSLSPDYKDDDDK EPKSSDKTHTCPPCPAPELLGGPSVFLFPPKPKDTLMISRTPEVTCVVVDVSHEDPEVKFNWYVDGVEVHNAKTKPREEQYNSTYRVVSVLTVLHQDWLNGKEYKCKVSNKALPAPIEKTISKAKGQPREPQVCTLPPSRDELTKNQVSLWCLVKGFYPSDIAVEWESNGQPENNYKTTPPVLDSDGSFFLYSKLTVDKSRWQQGNVFSCSVMHEALHNRYTQKSLSLSP light: DIVMTQSPLSLPVTPGEPASISCRSSQSLVHSNRNTYLHWYQQKPGQAPRLLIYKVSNRFSGVPDRFSGSGSGTDFTLKISRVEAEDVGVYYCGQGTQVPYTFGQGTKLEIKRTVAAPSVFIFPPSDEQLKSGTASVVCLLNNFYPREAKVQWKVDNALQSGNSQESVTEQDSKDSTYSLSSTLTLSKADYEKHKVYACEVTHQGLSSPVTKSFNRGEC |
| 106 |  | 154R5A02#2 (antibody, human IgG1, kappa, L234A L235A, N297A, One-arm antibody) heavy: QVQLVESGGGLVQPGRSLRLSCAASGFTFSNAWMHWVRQAPGKGLEWVAQIKDRGNNYNTYYAPSVKGRFTISRDDSKNSIYLQMNSLKTEDTAVYYCRYAHYGSYFFSGSSFGVDIWGQGTTVTVSSASTKGPSVFPLAPSSKSTSGGTAALGCLVKDYFPEPVTVSWNSGALTSGVHTFPAVLQSSGLYSLSSVVTVPSSSLGTQTYICNVNHKPSNTKVDKKVEPKSCDKTHTCPPCPAPEAAGGPSVFLFPPKPKDTLMISRTPEVTCVVVDVSHEDPEVKFNWYVDGVEVHNAKTKPREEQYASTYRVVSVLTVLHQDWLNGKEYKCKVSNKALPAPIEKTISKAKGQPREPQVYTLPPSRCELTKNQVSLSCAVKGFYPSDIAVEWESNGQPENNYKTTPPVLDSDGSFFLVSKLTVDKSRWQQGNVFSCSVMHEALHNHYTQKSLSLSPDYKDDDDK EPKSSDKTHTCPPCPAPELLGGPSVFLFPPKPKDTLMISRTPEVTCVVVDVSHEDPEVKFNWYVDGVEVHNAKTKPREEQYNSTYRVVSVLTVLHQDWLNGKEYKCKVSNKALPAPIEKTISKAKGQPREPQVCTLPPSRDELTKNQVSLWCLVKGFYPSDIAVEWESNGQPENNYKTTPPVLDSDGSFFLYSKLTVDKSRWQQGNVFSCSVMHEALHNRYTQKSLSLSP light: DIVMTQSPLSLPVTPGEPASISCRSSQSLVHSNRNTYLHWYQQKPGQAPRLLIYKVSNRFSGVPDRFSGSGSGTDFTLKISRVEAEDVGVYYCGQGTQVPYTFGQGTKLEIKRTVAAPSVFIFPPSDEQLKSGTASVVCLLNNFYPREAKVQWKVDNALQSGNSQESVTEQDSKDSTYSLSSTLTLSKADYEKHKVYACEVTHQGLSSPVTKSFNRGEC |
